Laboratory results: the RNAGym collection of RNA variant scans (doi:10.7554/elife.80360)

B1: CPEB3 Ribozyme (parent)
chain: GGGGGCCACAGCAGAAGCGUUCACGUCGCGGCCCCUGUCAGAUUCUGGUGAAUCUGCGAAUUCUGCUGU

Variants of: B1
Test: self-cleavage, relative activity (ratio to wild type); higher = more cleavage; co-transcriptional
In the case of GGGGGCCACAGCAGACGCGUUCACGUCGCGGCCCCUGUCAGAUUCUGGUCAAUCUGCGAAUUCUGCUGU [A16C G50C], the self-cleavage is reported as 0.301.
Work on GGGGGCCACAGCAGACGCGUUCACGUCGCGGCCCCUGGCAGAUUCUGGUGAAUCUGCGAAUUCUGCUGU [A16C U38G] yielded a self-cleavage of 0.15.
Work on GGGGGCCACAGCAGACGCGUUCACGUCGCGGCCCCUGCCAGAUUCUGGUGAAUCUGCGAAUUCUGCUGU [A16C U38C] yielded a self-cleavage of 0.137.
For GGGGGCCACAGCAGACGCGUUCACGUCGCGGCCCCUGACAGAUUCUGGUGAAUCUGCGAAUUCUGCUGU [A16C U38A], the self-cleavage was 0.269.
Work on GGGGGCCACAGCAGAGGCGUUCACGUCGCGGCGCCUGUCAGAUUCUGGUGAAUCUGCGAAUUCUGCUGU [A16G C33G] yielded a self-cleavage of 0.29.
Variant GGGGGCCACAGCAGAGGCGUUCACGUCGCGGCUCCUGUCAGAUUCUGGUGAAUCUGCGAAUUCUGCUGU [A16G C33U] has a self-cleavage of 0.946.
Work on GGGGGCCACAGCAGAGGCGUUCACGUCGCGGCCCCUGUCUGAUUCUGGUGAAUCUGCGAAUUCUGCUGU [A16G A40U] yielded a self-cleavage of 0.409.
Work on GGGGGCCACAGCAGAGGCGUUCACGUCGCGGCCCCUGUCCGAUUCUGGUGAAUCUGCGAAUUCUGCUGU [A16G A40C] yielded a self-cleavage of 0.243.
In the case of GGGGGCCACAGCAGACGCGUUCACGUCGCGGCCCCUGUCAGAUUCUGGAGAAUCUGCGAAUUCUGCUGU [A16C U49A], the self-cleavage is reported as 0.419.
GGGGGCCACAGCAGACGCGUUCACGUCGCGGCCCCUGUCAGAUUCUGGGGAAUCUGCGAAUUCUGCUGU [A16C U49G] showed a self-cleavage of 0.319.
GGGGGCCACAGCAGACGCGUUCACGUCGCGGCCCCUGUCAGAUUCUGGCGAAUCUGCGAAUUCUGCUGU [A16C U49C] gave a self-cleavage of 0.377.
With GGGGGCCACAGCAGACGCGUUCACGUCGCGGCCCCUGUCAGAAUCUGGUGAAUCUGCGAAUUCUGCUGU [A16C U43A] the self-cleavage was 0.118.
Variant GGGGGCCACAGCAGAGGUGUUCACGUCGCGGCCCCUGUCAGAUUCUGGUGAAUCUGCGAAUUCUGCUGU [A16G C18U] has a self-cleavage of 0.569.
With GGGGGCCACAGCAGAGGAGUUCACGUCGCGGCCCCUGUCAGAUUCUGGUGAAUCUGCGAAUUCUGCUGU [A16G C18A] the self-cleavage was 0.0836.
GGGGGCCACAGCAGACGCGUUCACGUCGCGGCCCCUGUCAGAUUCUGGUGAAUCAGCGAAUUCUGCUGU [A16C U55A] showed a self-cleavage of 0.153.
With GGGGGCCACAGCAGACGCGUUCACGUCGCGGCCCCUGUCAGAUUCUGGUGAAUCGGCGAAUUCUGCUGU [A16C U55G] the self-cleavage was 0.204.
Variant GGGGGCCACAGCAGACGCGGUCACGUCGCGGCCCCUGUCAGAUUCUGGUGAAUCUGCGAAUUCUGCUGU [A16C U20G] has a self-cleavage of 0.285.
GGGGGCCACAGCAGAGGCGUUCACGUCGCGGCCCCUGUCAGCUUCUGGUGAAUCUGCGAAUUCUGCUGU [A16G A42C] gave a self-cleavage of 0.608.
GGGGGCCACAGCAGAGGCGUUGACGUCGCGGCCCCUGUCAGAUUCUGGUGAAUCUGCGAAUUCUGCUGU [A16G C22G] gave a self-cleavage of 0.0656.
In the case of GGGGGCCACAGCAGAGGCGUUCACGUCGCGGCCCCUGUCAGAUUCUGGUGCAUCUGCGAAUUCUGCUGU [A16G A51C], the self-cleavage is reported as 0.819.
With GGGGGCCACAGCAGAGGCGUUCACGUCGCGGCCCCUGUCAGAUUCUGGUGGAUCUGCGAAUUCUGCUGU [A16G A51G] the self-cleavage was 0.894.
For GGGGGCCACAGCAGAGGCGUUCACGUCGCGGCCCCUGUCAGAUUCUGGUGAAUCUGCGAAUUCUGGUGU [A16G C66G], the self-cleavage was 0.646.
Variant GGGGGCCACAGCAGACGCGUUCACGUCGCGGCCCCUGUCAGAUUCUGGUGAAUCUGCCAAUUCUGCUGU [A16C G58C] has a self-cleavage of 0.28.
Work on GGGGGCCACAGCAGACGCGUUCACGUCGCGGCCCCUGUCAGAUUCUGGUGAAUCUGCUAAUUCUGCUGU [A16C G58U] yielded a self-cleavage of 0.494.
For GGGGGCCACAGCAGACGCGUUCACGUCGCGGCCCCUGUCAGAUUCUGGUGAAUCUGCAAAUUCUGCUGU [A16C G58A], the self-cleavage was 0.189.
Work on GGGGGCCACAGCAGAGGCGUUCACGUCGCGGCCCCUGUCAGAUUCUGGUGAAUCUGGGAAUUCUGCUGU [A16G C57G] yielded a self-cleavage of 0.324.
Work on GGGGGCCACAGCAGAGGCGUUCACGUCGCGGCCCCUGUCAGAUUCUGGUGAAUCUGAGAAUUCUGCUGU [A16G C57A] yielded a self-cleavage of 0.335.
GGGGGCCACAGCAGAGGCGUUCACGUCGCGGCCCCUGUCAGAUUCUGGUGAAUCUGUGAAUUCUGCUGU [A16G C57U] gave a self-cleavage of 0.317.
Variant GGGGGCCACAGCAGAGGCGUUCACGUCGCGGCCCCUGUAAGAUUCUGGUGAAUCUGCGAAUUCUGCUGU [A16G C39A] has a self-cleavage of 0.591.
Work on GGGGGCCACAGCAGAGGCGUUCACGUCGCGGCCCCUGUUAGAUUCUGGUGAAUCUGCGAAUUCUGCUGU [A16G C39U] yielded a self-cleavage of 0.808.
Work on GGGGGCCACAGCAGAGGCGUUCACGUCGCGGCCCCUGUGAGAUUCUGGUGAAUCUGCGAAUUCUGCUGU [A16G C39G] yielded a self-cleavage of 0.745.
Work on GGGGGCCACAGCAGAGGCGUUCACGUCGCGGCCCCUGUCAGAUUCUGGUGAAUCUGCGAAUUCUGCUGU [A16G] yielded a self-cleavage of 0.946.
Work on GGGGGCCACAGCAGACGCGUUCACGUCGCGGCCCCUGUCAGAUUCAGGUGAAUCUGCGAAUUCUGCUGU [A16C U46A] yielded a self-cleavage of 0.51.
For GGGGGCCACAGCAGACGCGUUCACGUCGCGGCCCCUGUCAGAUUCUGGUGAAUCUGCGAAUUCUACUGU [A16C G65A], the self-cleavage was 0.155.
For GGGGGCCACAGCAGACGCGUUCACGUCGCGGCCCCUGUCAGAUUCUGGUGAAUCUGCGAAUUCUUCUGU [A16C G65U], the self-cleavage was 0.13.
In the case of GGGGGCCACAGCAGACGCGUUCACGUCGCGGCCCCUGUCAGAUUCUGGUGAAUCUGCGAAUUCUGCGGU [A16C U67G], the self-cleavage is reported as 0.257.
For GGGGGCCACAGCAGACGCGUUCACGUCGCGGCCCCUGUCAGAUUCUGGUGAAUCUGCGAAUUCUGCAGU [A16C U67A], the self-cleavage was 0.331.
For GGGGGCCACAGCAGAGGCGUUCACGUCGAGGCCCCUGUCAGAUUCUGGUGAAUCUGCGAAUUCUGCUGU [A16G C29A], the self-cleavage was 0.224.
For GGGGGCCACAGCAGAGGCGUUCACGUCGUGGCCCCUGUCAGAUUCUGGUGAAUCUGCGAAUUCUGCUGU [A16G C29U], the self-cleavage was 0.111.
